Reference: patent publication US20150376269A1 (Regeneron, published 2015)
Changes are numbered by the printed parent chain. Numbers in names are those of the source.

B1: H1H10064P (antibody, V domains shown)
VH: QVQLVQSGAEVKKPGSSVKVSCKASGGSFSSNVFSWVRQAPGQGLEWMGGIIPIFGSANYAQKFQGRVTITTDESTTTAYMELSSLRSEDTAVYYCAIGGTGPSGYNWNYGAFYIWGQGTMVTVSS
VL: DIQMTQSPSSLSASVGDRVTITCRASQGIRNDLGWYQQKPGIAPKRLIYAASSLQSGVPSRFSGSGSGTEFTLTISSLQPEDFATYYCLQHNSYPYTFGQGTKLEIK
notes: Fully human antibody with human IgG1 Fc (prefix H1H)
B2: H1H10031P (antibody, V domains shown)
VH: EVQLVESGGNVVRPGGSLRLSCSGSGFAFENYGMSWVRQGPGKGLEWVSNINWNGGSLNYVDSVKGRFTISRDNAKNSLYLQMNSLRAEDTALYYCARVIVYGMDVWGQGTTVTVSS
VL: B1 VL with D32G, Y36F, I42K, A51T, H91S, Y96W, L104V
notes: as for B1
B3: H2aM10201N (antibody, V domains shown)
VH: QVQLLESGGGVVQPGKSLRLSCVASGSIFSIYGMNWVRQAPGKGLEWVASVSSDGSAKFYADSVKGRFTISRDNSNDTLFLQMTSLRAEDTAVYYCAKTLWNYLFDSWGQGTLVTVSS
VL: ENVLTQSPDTLSLSPGERATLSCRASQSITSNYLAWYQQKPGQTPRLLISFTSRRATGIPDRFSGSGSGTVFTLTISRLEPEDFAVYYCQQYGTSLTFGGGAKVEIR
notes: Chimeric antibody, human variable domains and mouse constant domains (mouse Fc, prefix H2aM); also called H2M10201N
B4: H1H10056P (antibody, V domains shown)
VH: QVQLVESGGGVVQPGRSLRLSCSASGFTFSLYGMHWIRQAPGKGLEWVAVISYDGSNTYYGDSVKGRFTISRDNSKNTLYLQMNSLRTEDTAIYYCAKVYNWNYLFDYWGQGTLVTVSS
VL: EIVLTQSPDTLSLSPGERATLSCRASQNVNNNFLAWYQQKPGQAPRLLIYGASSRATDIPERFSGSGSGTDFTLTISRLEPEDFAVYYCLHYVNSRTFGQGTKVEIK
notes: as for B1
B5: H1H10045P (antibody, V domains shown)
VH: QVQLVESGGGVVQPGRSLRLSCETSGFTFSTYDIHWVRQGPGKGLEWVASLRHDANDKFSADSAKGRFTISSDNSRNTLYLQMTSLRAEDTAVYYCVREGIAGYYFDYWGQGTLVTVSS
VL: DIQMTQSPSFVSASVGDRVTISCRASQDIHTWLAWYQQKPGKAPNLLIYAASGLHSRAPSRFSGSGSGTDFTLTISSLQPEDFATYYCQKADRFPFTFGPGTKVDIK
notes: as for B1
B6: H1H10026P (antibody, V domains shown)
VH: QVQLVESGGGVVQPGRSLRLSCEASGFTFSIYGMHWVRQAPGKGLEWVAVISYDGTNRYYADSVKGRFTISRDNSKNTLYLQMNSLRAEDTAVYYCAKVNIWNFLFDYWGQGTLVTVSS
VL: EIVLTQSPGTLSLSPGERATLSCRASQSVSGNYLAWYQQKPGQAPRLLIYGPSSRATGIPDRFSGSGSGTDFTLTISRLEPEDFAVYYCQQYGTSLTFGGGTKVEIK
notes: as for B1
B7: H2aM10200N (antibody, V domains shown)
VH: QVQLVQSGAEVKKPGSSVKVSCKASGGTFSSYAISWVRQAPGQGLEWMGGIIPFFGTATYAQKFQGRVTITTDESTRTVYMELSSLRYEDTAVYYCARWYSGYGGDFDYWGQGTLVTVSS
VL: B1 VL with D1A, Y36F, I42K, R46L, E70D, T74S, H91D, N92Y, Y96R, L104V
notes: Hybridoma-derived chimeric antibody, human variable domains and mouse constant domains (mouse Fc, prefix H2aM); also called H2M10200N
B8: H1H10058P (antibody, V domains shown)
VH: EVQLVESGGGLVQPGGSLRLSCAASGFTFNDFFMSWVRQAPGKGLEWVANLNQDGSERHYVDSVKGRFTISRDNAKNSLSLQMNSLRVEDTAVYYCAREGGDSWGQGTLVTVSS
VL: DIVMTQSPDSLAVSLGERVTINCKSSQSILYSANNKDYLAWFHQKPGQPPKLLIYWASIRESGVPDRISGSGSGTDFTLTISSLQAEDVAVYYCQQYYLFPPTFGQGTKVEIK
notes: as for B1
B9: H1H10027P (antibody, V domains shown)
VH: EVQLVESGGALVQPGRSLTLSCAASGFTFDDYTMHWVRQTPGKGLEWVSGILWNSDNLVYADSVKGRFTISRDNAKNSLYLQMNSLRVEDTALYYCTKEIDYLTLGGNAFDVWGQGTMVTVSS
VL: DIQMTQSPSTLSASVGDRITITCRASQNINYWLAWYQQKPGKAPKLLIYKASSLAGGVPSRFSGSGSGTDFTLTINSLQPDDFATYYCQKYNTYSLNFGGGTKVEIK
notes: as for B1

Columns and labels:
[1] = molecular target: T1, serum resistance-associated protein (SRA) from Trypanosoma brucei rhodesiense, recombinant SRA (SEQ ID NO: … (Trypanosoma brucei rhodesiense, UniProt O96637 31-274)); experiment: SPR, mAb captured, 25C, pH 7.4
T1 construct: also called SRA protein
T1 sequence: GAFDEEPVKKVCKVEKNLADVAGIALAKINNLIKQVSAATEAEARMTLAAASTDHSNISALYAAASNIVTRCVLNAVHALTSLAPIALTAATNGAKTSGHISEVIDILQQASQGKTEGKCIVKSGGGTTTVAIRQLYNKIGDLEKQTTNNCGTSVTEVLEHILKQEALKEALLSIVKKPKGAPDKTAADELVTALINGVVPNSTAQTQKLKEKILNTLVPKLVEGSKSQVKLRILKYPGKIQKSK
Method: (§1) Equilibrium dissociation constants (KD) values for SRA binding to selected purified anti-SRA monoclonal antibodies were determined using a real-time surface plasmon resonance biosensor assay on a Biacore T200 instrument. […] SRA binding to the captured monoclonal antibodies was monitored for 4 min while the dissociation of mAb bound SRA was monitored for 7 min. Two different assays formats were adopted to characterize kinetics of SRA binding—(i) regular kinetics and (ii) pH4.5 chase. Regular kinetics experiments were performed using pH7.4 buffer as the running buffer and both the association and dissociation was performed in pH7.4. For the chase format, association and dissociation were performed in pH7.4 buffer and pH4.5 buffer respectively.
(§2) Kinetic association (kₐ) and dissociation (kd) rate constants were determined by processing and fitting the data to a 1:1 binding model using Scrubber 2.0c curve fitting software. Only the dissociation rate (kd) was calculated for the pH4.5 chase experiment. Binding dissociation equilibrium constants (KD) and dissociative half-lives (t½) were calculated from the kinetic rate constants as:

[2] = molecular target: T1, serum resistance-associated protein …; experiment: SPR, 25C, t1/2 pH 7.4 over pH 4.5
Method: as §1, §2

[3] = molecular target: T1, serum resistance-associated protein …; experiment: SPR, mAb captured, 50 nM SRA, pH 4.5, 25C
[4] = molecular target: T1, serum resistance-associated protein …; experiment: SPR, mAb captured, 25C, assoc. pH 7.4, dissoc. pH 4.5
Method: as §1, §2

[5] = molecular target: T1, serum resistance-associated protein …; experiment: SPR, mAb captured, pH 4.5, 25C; competitor biotin-apoL1 peptide
[6] = molecular target: T1, serum resistance-associated protein …; experiment: SPR, mAb captured, pH 4.5, 25C; competitor biotin-mutant apoL1 peptide
SRA.mmh [7] = molecular target: T2, SRA.mmh; experiment: Octet, SRA.mmh captured on anti-Penta-His tips, mAb-1 at 50 ug/mL for 5 min, 25 C, pH 7.4
T2 construct: also called SRA.mmh (CHO)
T2 antigen: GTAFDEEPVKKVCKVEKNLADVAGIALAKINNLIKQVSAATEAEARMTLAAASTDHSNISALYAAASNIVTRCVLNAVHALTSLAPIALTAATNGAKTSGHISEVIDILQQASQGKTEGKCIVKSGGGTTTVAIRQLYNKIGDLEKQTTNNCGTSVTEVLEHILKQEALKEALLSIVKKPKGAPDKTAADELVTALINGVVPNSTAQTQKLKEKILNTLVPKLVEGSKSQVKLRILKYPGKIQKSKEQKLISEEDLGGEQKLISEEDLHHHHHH

SRA.mmh [8] = molecular target: T2, SRA.mmh; experiment: Octet, mAb-2 at 50 ug/mL on captured SRA.mmh after negative control α-PRLR H1H6800P as mAb-1 (row 32 (-))

Binder | Kd [1] | kon [1] | t ½ [1] | t ½ ratio pH 7.4/pH 4.5 [2] | 50 nM SRA binding (RU) [3] | t ½ [4] | 50 nM SRA + 5 uM apoL1 peptide binding (RU) [5] | % Blocking, apoL1 peptide [5] | 50 nM SRA + 5 uM mutant apoL1 peptide binding (RU) [6] | % Blocking, Mutant apoL1 peptide [6] | 50 ug/mL mAb 1 Bound (nm) (SRA.mmh [7]) | Binding of mAb-2 to SRA Pre-complexed with mAb-1 (SRA.mmh [8])
B1 | 0.546 nM | 1.6e+06 M⁻¹ s⁻¹ | 0.217 h | 9 | 76 RU | 0.025 h | -11 RU | 100% | 67 RU | 11% | 1.25 nm | 1.22
B2 | ≤ 0.095 nM | 526000 M⁻¹ s⁻¹ | ≥ 3.85 h | ≥ 1 | 60 RU | 3.32 h | 45 RU | 25% | 57 RU | 6% | 1.59 nm | 1.58
B3 | 0.245 nM | 642000 M⁻¹ s⁻¹ | 1.23 h | 109 | 109 RU | 0.0117 h | 42 RU | 61% | 108 RU | 0% | 1.27 nm | 1.31
B4 | ≤ 0.134 nM | 372000 M⁻¹ s⁻¹ | ≥ 3.85 h | ≥ 31 | 72 RU | 0.117 h | -4 RU | 100% | 67 RU | 7% | 1.3 nm | 1.28
B5 | ≤ 0.108 nM | 459000 M⁻¹ s⁻¹ | ≥ 3.85 h |  | 82 RU | ≥ 3.85 h | 52 RU | 36% | 77 RU | 6% | 1.72 nm | 1.4
B6 | ≤ 0.0814 nM | 614000 M⁻¹ s⁻¹ | ≥ 3.85 h | ≥ 2 | 104 RU | 1.75 h | 84 RU | 19% | 106 RU | -2% | 1.45 nm | 1.64
B7 | 0.0996 nM | 844000 M⁻¹ s⁻¹ | 2.28 h | 77 | 159 RU | 0.0333 h | -2 RU | 100% | 150 RU | 5% | 1.59 nm | 1.28
B8 | ≤ 0.0786 nM | 636000 M⁻¹ s⁻¹ | ≥ 3.85 h | ≥ 1 | 59 RU | 4.05 h | 57 RU | 4% | 56 RU | 5% | 1.44 nm | 1.27
B9 | ≤ 0.0376 nM | 1.33e+06 M⁻¹ s⁻¹ | ≥ 3.85 h | ≥ 3 | 95 RU | 1.4 h | 118 RU | -24% | 92 RU | 4% | 1.5 nm | 1.55
